Test results as given in publication PMC10907274.
“And” between values parts separate entries of the source, which are not always exact repeats. Equal entries are not always repeated.

Target: Dark (wild type), auto-inhibited monomer (D. melanogaster) (UniProt Q7KLI1)
Assay: cryo-EM structure

Dark (wild type), auto-inhibited monomer (from UniProt Q7KLI1 1-1440) (natural protein)
stoichiometry N: 6 and 8
